The results in this text go back to publication PMC8080589, “Modulation of αVβ6 integrin in osteoarthritis-related synovitis and the interaction with VTN(381–397 a.a.) competing for TGF-β1 activation” (Experimental & Molecular Medicine, 2021).

Ends that are not written are not given here.

For test [1], the target named is T1, integrin αVβ6 (Homo sapiens, UniProt P06756+P18564).
T1 construct: purchased R&D System; Minneapolis, MN, USA
Kind of test: Competition study, 125ISIB-echistatin vs ligands on coated αVβ6. Type of test: binding. As to conditions: competition with 20 nM 125ISIB-echistatin, recombinant human αVβ6 coated at 1.8 µg/mL, IBB pH 7.4 / 0.5% BSA, 2 h room temperature, duplicate wells, gamma counter, five-parameter logistic. As to the method:
(§1) A competition study was performed to investigate the interaction of VTN(381–397 a.a.) with five different integrins. Radiolabeled echistatin, a disintegrin known to bind integrin receptors, was used as a tracer for the binding assays. Lyophilized echistatin was provided by Bachem (Bubendorf, Switzerland) and radiolabeled by conjugation with a radioiodinated benzoate (^125ISIB) to the epsilon amino group of lysine side chains. For the five integrins, α5β1, αVβ1, αVβ3, αVβ5, and αVβ6 (R&D System; Minneapolis, MN, USA), a solution at 1.8 µg/mL was prepared with integrin-binding buffer (IBB; 20 mM Tris pH 7.4, 150 mM NaCl, 2 mM CaCl2, 1 mM MgCl2, 1 mM MnCl2). Nunc Maxisorp Module plates were coated overnight at 4 °C with integrin complex at 1.8 µg/mL. After the wells were washed with sample buffer (IBB, 0.5% BSA), blocking solution (IBB, 2% BSA) was added, and the microplate was incubated for 2 h at room temperature. The wells were then washed three times with IBB/0.5% BSA. Then, ^125ISIB-echistatin was diluted in sample buffer to fixed concentrations of 4, 4, 8, 8, and 20 nM for α5β1, αVβ1, αVβ3, αVβ5, and αVβ6 competition studies, respectively. The ^125ISIB-echistatin was mixed with sample buffer at a ratio of 1:1 (total binding = control well) or with increasing concentrations of ligands (Supplementary information SI1) [complete VTN, VTN(381–397 a.a.), VTN(365–381 a.a.)] at a ratio 1:1 and added to wells in duplicate. We used 1,4,7-triazacyclononane-1,4,7-triacetic acid (NOTA) as a negative control. […] After rinsing, bound radioactivity was quantified using a gamma counter. The percentage of relative binding of radiolabeled echistatin was calculated as follows: radioactivity in the test well*100/radioactivity in the reference well. […] For comparison of the potency of ligands in inhibiting bound ^125ISIB-echistatin for different integrin complexes, the half-maximal inhibitory concentration (IC50) was calculated. The IC50 value was determined by constructing a dose–response curve and examining the effect of different concentrations of ligands on ^125ISIB-echistatin binding. […]
To determine if VTN(381–397 a.a.) could interact with integrins, we investigated its ability to compete with radiolabeled echistatin for binding to five different integrin complexes: α5β1, αVβ1, αVβ3, αVβ5 and αVβ6. […] First, the binding affinity of echistatin to the five integrins was measured by determining the equilibrium dissociation constant (KD). […] The fixed concentration of radiolabeled echistatin was determined according to its KD value. For each ligand concentration, the relative binding of ^125ISIB-echistatin to coated integrins was then measured, and values were plotted versus the logarithm of ligand concentration.

For test [2], the target named is T2, integrin α5β1 (Homo sapiens, UniProt P05556+P08648).
T2 construct: purchased R&D System; Minneapolis, MN, USA
T2 sequence (P08648 42-995 limits assumed): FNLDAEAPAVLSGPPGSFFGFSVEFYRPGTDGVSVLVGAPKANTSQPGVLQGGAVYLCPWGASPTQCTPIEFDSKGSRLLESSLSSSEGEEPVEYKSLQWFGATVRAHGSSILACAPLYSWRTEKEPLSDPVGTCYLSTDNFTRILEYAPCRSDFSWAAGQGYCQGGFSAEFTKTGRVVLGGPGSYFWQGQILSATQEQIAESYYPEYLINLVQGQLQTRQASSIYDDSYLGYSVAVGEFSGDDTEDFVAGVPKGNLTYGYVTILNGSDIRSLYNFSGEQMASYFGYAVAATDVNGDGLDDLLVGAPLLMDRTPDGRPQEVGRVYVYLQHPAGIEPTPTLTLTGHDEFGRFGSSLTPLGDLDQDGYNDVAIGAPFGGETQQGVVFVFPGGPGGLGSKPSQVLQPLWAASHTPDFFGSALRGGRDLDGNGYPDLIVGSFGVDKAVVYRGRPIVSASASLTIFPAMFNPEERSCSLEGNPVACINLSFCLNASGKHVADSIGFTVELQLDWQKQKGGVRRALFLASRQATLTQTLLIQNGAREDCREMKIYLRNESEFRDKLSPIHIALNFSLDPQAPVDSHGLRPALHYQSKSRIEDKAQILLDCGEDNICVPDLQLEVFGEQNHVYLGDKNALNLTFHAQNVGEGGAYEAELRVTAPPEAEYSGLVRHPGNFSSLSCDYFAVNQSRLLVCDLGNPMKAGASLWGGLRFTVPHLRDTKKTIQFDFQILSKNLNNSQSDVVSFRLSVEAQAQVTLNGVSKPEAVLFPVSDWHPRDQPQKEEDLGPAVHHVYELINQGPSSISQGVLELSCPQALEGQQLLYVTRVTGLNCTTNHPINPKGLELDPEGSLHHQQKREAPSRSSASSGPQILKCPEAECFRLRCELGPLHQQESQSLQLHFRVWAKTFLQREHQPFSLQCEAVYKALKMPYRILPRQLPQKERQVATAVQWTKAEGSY
T2 sequence (P05556 21-728 limits assumed): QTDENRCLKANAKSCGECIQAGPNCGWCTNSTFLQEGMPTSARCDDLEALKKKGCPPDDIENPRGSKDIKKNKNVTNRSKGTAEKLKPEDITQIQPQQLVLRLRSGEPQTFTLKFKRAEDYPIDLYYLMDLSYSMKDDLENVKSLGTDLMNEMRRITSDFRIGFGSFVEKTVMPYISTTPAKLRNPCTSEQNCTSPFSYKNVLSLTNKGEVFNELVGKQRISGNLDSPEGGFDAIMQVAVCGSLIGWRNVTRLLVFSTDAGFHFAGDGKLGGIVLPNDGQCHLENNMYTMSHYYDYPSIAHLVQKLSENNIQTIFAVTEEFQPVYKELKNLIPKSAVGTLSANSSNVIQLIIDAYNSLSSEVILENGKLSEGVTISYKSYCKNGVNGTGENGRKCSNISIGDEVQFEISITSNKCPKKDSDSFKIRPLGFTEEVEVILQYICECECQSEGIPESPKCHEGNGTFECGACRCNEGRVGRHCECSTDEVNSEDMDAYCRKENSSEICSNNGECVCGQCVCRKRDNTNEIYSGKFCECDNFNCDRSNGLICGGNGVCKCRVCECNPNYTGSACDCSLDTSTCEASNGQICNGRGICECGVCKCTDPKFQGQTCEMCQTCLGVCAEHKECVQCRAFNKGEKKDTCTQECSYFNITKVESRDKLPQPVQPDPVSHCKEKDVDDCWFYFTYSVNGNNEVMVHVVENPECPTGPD
Kind of test: Competition study, 125ISIB-echistatin vs ligands on coated α5β1. The test is classed as binding. Particulars: competition with 4 nM 125ISIB-echistatin, recombinant human α5β1 coated at 1.8 µg/mL, IBB pH 7.4 / 0.5% BSA, 2 h room temperature, duplicate wells. As to the method: as §1, with “µg/mL.” for “µg/mL. After the wells were washed with sample buffer (IBB, 0.5% BSA), blocking solution (IBB, 2% BSA) was added, and the microplate was incubated for 2 h at room temperature. The wells were then washed three times with IBB/0.5% BSA. Then, ^125ISIB-echistatin was diluted in sample buffer to fixed concentrations of 4, 4, 8, 8, and 20 nM for α5β1, αVβ1, αVβ3, αVβ5, and αVβ6 competition studies, respectively. The ^125ISIB-echistatin was mixed with sample buffer at a ratio of 1:1 (total binding = control well) or with increasing concentrations of ligands (Supplementary information SI1) [complete VTN, VTN(381–397 a.a.), VTN(365–381 a.a.)] at a ratio 1:1 and added to wells in duplicate. We used 1,4,7-triazacyclononane-1,4,7-triacetic acid (NOTA) as a negative control.”

Test [3] has as its target T3, integrin αVβ1 (Homo sapiens, UniProt P05556+P06756).
T3 construct: purchased R&D System; Minneapolis, MN, USA
Nature of the test: Competition study, 125ISIB-echistatin vs ligands on coated αVβ1. Type of test: binding. Particulars: competition with 4 nM 125ISIB-echistatin, recombinant human αVβ1 coated at 1.8 µg/mL, IBB pH 7.4 / 0.5% BSA, 2 h room temperature, duplicate wells. The procedure:
as §1, with “µg/mL.” for “µg/mL. After the wells were washed with sample buffer (IBB, 0.5% BSA), blocking solution (IBB, 2% BSA) was added, and the microplate was incubated for 2 h at room temperature. The wells were then washed three times with IBB/0.5% BSA. Then, ^125ISIB-echistatin was diluted in sample buffer to fixed concentrations of 4, 4, 8, 8, and 20 nM for α5β1, αVβ1, αVβ3, αVβ5, and αVβ6 competition studies, respectively. The ^125ISIB-echistatin was mixed with sample buffer at a ratio of 1:1 (total binding = control well) or with increasing concentrations of ligands (Supplementary information SI1) [complete VTN, VTN(381–397 a.a.), VTN(365–381 a.a.)] at a ratio 1:1 and added to wells in duplicate. We used 1,4,7-triazacyclononane-1,4,7-triacetic acid (NOTA) as a negative control.”

For test [4], the target named is T4, integrin αVβ3 (Homo sapiens, UniProt P05106+P06756).
T4 construct: purchased R&D System; Minneapolis, MN, USA
T4 sequence (P06756 31-992 limits assumed): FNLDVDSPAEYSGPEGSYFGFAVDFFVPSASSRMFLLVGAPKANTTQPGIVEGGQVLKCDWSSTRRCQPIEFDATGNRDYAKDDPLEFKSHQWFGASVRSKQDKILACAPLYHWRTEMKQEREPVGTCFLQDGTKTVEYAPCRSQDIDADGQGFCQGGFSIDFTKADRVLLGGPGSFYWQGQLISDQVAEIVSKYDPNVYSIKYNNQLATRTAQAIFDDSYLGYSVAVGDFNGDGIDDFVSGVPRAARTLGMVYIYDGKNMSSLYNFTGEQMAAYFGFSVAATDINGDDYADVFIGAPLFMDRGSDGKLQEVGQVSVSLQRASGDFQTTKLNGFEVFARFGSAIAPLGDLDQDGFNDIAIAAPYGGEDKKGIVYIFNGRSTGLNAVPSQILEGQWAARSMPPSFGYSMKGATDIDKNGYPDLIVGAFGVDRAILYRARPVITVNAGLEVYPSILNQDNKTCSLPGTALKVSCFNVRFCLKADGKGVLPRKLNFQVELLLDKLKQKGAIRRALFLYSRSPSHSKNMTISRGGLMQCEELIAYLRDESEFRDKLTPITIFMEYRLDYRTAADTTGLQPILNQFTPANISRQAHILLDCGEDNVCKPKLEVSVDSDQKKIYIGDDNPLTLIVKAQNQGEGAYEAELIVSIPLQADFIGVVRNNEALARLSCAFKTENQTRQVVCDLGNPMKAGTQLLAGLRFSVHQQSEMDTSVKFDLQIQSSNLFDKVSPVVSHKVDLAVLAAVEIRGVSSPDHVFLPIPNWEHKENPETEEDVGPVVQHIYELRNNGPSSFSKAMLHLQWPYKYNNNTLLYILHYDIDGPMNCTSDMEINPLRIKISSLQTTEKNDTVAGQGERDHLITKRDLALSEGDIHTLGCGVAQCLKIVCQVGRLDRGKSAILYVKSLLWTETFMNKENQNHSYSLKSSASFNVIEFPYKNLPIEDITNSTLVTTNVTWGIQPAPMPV
T4 sequence (P05106 27-718 limits assumed): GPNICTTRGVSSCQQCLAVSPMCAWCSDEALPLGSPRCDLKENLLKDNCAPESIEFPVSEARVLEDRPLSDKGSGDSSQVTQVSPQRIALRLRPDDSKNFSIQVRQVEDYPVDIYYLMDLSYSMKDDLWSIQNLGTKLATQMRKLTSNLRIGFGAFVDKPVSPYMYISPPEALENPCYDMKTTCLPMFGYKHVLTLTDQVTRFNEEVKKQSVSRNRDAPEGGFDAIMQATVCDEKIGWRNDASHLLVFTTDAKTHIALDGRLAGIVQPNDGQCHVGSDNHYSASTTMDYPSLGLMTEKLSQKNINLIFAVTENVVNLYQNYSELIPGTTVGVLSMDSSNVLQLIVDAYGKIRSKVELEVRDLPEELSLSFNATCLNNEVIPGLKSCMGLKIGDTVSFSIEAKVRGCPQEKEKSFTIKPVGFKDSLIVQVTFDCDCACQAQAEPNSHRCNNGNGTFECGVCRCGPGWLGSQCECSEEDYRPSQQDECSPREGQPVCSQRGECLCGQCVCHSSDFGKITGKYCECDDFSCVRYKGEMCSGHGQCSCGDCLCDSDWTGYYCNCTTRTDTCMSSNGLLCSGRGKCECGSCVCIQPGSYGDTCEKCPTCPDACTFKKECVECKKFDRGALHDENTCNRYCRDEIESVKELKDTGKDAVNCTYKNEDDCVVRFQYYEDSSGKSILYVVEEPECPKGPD
Nature of the test: Competition study, 125ISIB-echistatin vs ligands on coated αVβ3. Type of test: binding. Particulars: competition with 8 nM 125ISIB-echistatin, recombinant human αVβ3 coated at 1.8 µg/mL, IBB pH 7.4 / 0.5% BSA, 2 h room temperature, duplicate wells. The procedure:
as §1, with “µg/mL.” for “µg/mL. After the wells were washed with sample buffer (IBB, 0.5% BSA), blocking solution (IBB, 2% BSA) was added, and the microplate was incubated for 2 h at room temperature. The wells were then washed three times with IBB/0.5% BSA. Then, ^125ISIB-echistatin was diluted in sample buffer to fixed concentrations of 4, 4, 8, 8, and 20 nM for α5β1, αVβ1, αVβ3, αVβ5, and αVβ6 competition studies, respectively. The ^125ISIB-echistatin was mixed with sample buffer at a ratio of 1:1 (total binding = control well) or with increasing concentrations of ligands (Supplementary information SI1) [complete VTN, VTN(381–397 a.a.), VTN(365–381 a.a.)] at a ratio 1:1 and added to wells in duplicate. We used 1,4,7-triazacyclononane-1,4,7-triacetic acid (NOTA) as a negative control.”

For test [5], the target named is T5, integrin αVβ5 (Homo sapiens, UniProt P06756+P18084).
T5 construct: purchased R&D System; Minneapolis, MN, USA
T5 sequence (P06756 31-992 limits assumed): as the sequence (P06756 31-992 limits assumed) above
T5 sequence (P18084 24-719 limits assumed): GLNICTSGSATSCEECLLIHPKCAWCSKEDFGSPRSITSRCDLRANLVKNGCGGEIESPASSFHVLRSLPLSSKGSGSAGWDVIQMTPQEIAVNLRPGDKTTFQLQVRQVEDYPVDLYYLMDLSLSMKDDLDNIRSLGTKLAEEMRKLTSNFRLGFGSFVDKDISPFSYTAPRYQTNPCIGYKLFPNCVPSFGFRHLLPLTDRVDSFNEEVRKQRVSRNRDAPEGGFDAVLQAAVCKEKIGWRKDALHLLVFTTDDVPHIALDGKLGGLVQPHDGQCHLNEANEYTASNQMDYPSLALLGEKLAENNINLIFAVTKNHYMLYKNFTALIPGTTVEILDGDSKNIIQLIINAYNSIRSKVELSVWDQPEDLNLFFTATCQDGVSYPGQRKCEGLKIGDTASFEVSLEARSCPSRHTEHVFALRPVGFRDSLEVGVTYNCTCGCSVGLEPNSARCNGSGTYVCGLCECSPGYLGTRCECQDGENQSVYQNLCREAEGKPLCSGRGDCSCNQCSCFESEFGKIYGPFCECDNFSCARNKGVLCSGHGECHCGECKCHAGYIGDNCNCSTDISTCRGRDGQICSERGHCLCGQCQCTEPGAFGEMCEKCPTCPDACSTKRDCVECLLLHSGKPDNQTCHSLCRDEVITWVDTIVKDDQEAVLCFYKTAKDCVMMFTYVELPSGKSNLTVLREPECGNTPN
Kind of test: Competition study, 125ISIB-echistatin vs ligands on coated αVβ5. The test is classed as binding. As to conditions: competition with 8 nM 125ISIB-echistatin, recombinant human αVβ5 coated at 1.8 µg/mL, IBB pH 7.4 / 0.5% BSA, 2 h room temperature, duplicate wells. The procedure: as §1, with “µg/mL.” for “µg/mL. After the wells were washed with sample buffer (IBB, 0.5% BSA), blocking solution (IBB, 2% BSA) was added, and the microplate was incubated for 2 h at room temperature. The wells were then washed three times with IBB/0.5% BSA. Then, ^125ISIB-echistatin was diluted in sample buffer to fixed concentrations of 4, 4, 8, 8, and 20 nM for α5β1, αVβ1, αVβ3, αVβ5, and αVβ6 competition studies, respectively. The ^125ISIB-echistatin was mixed with sample buffer at a ratio of 1:1 (total binding = control well) or with increasing concentrations of ligands (Supplementary information SI1) [complete VTN, VTN(381–397 a.a.), VTN(365–381 a.a.)] at a ratio 1:1 and added to wells in duplicate. We used 1,4,7-triazacyclononane-1,4,7-triacetic acid (NOTA) as a negative control.”

Test [6] addresses T2, integrin α5β1. Kind of test: Saturation assay with radiolabeled echistatin, α5β1. The test is classed as binding. Particulars: increasing radiolabeled echistatin, integrin coated at 1.8 µg/mL. The procedure: (§2) To determine if VTN(381–397 a.a.) could interact with integrins, we investigated its ability to compete with radiolabeled echistatin for binding to five different integrin complexes: α5β1, αVβ1, αVβ3, αVβ5 and αVβ6. We also tested the binding affinity of the whole VTN protein and another VTN fragment, VTN(365–381 a.a), as previously described by Maile et al.,[33]. First, the binding affinity of echistatin to the five integrins was measured by determining the equilibrium dissociation constant (KD). KD was evaluated by saturation assays involving addition of increasing concentrations of radiolabeled echistatin to a constant concentration of integrins (coated at 1.8 µg/mL). […] Subsequently, competitive experiments were performed using increasing concentrations of ligand and a fixed amount of radiolabeled echistatin. The fixed concentration of radiolabeled echistatin was determined according to its KD value. For each ligand concentration, the relative binding of ^125ISIB-echistatin to coated integrins was then measured, and values were plotted versus the logarithm of ligand concentration.

Test [7] addresses T3, integrin αVβ1. Nature of the test: Saturation assay with radiolabeled echistatin, αVβ1. The test is classed as binding. As to conditions: increasing radiolabeled echistatin, integrin coated at 1.8 µg/mL. The procedure:
as §2

The target in test [8] is T4, integrin αVβ3. Kind of test: Saturation assay with radiolabeled echistatin, αVβ3. Type of test: binding. As to conditions: increasing radiolabeled echistatin, integrin coated at 1.8 µg/mL. As to the method:
as §2

Test [9] addresses T5, integrin αVβ5. Nature of the test: Saturation assay with radiolabeled echistatin, αVβ5. The test is classed as binding. Particulars: increasing radiolabeled echistatin, integrin coated at 1.8 µg/mL. As to the method: as §2
Test [10] has as its target T1, integrin αVβ6. Nature of the test: Saturation assay with radiolabeled echistatin, αVβ6. Particulars: increasing radiolabeled echistatin, integrin coated at 1.8 µg/mL. Type of test: binding. The procedure:
as §2

For test [11], the system named is latent TGF-β1 activation (αVβ6 on human FLSs; PAI-1 promoter-luciferase in TMLCs). Nature of the test: TGF-β luciferase bioassay, TMLC + FLS coculture, activation of latent TGF-β1. The test is classed as cell-based, human FLSs; mink lung epithelial reporter cells. Particulars: peptide 50 ng/mL, 200 ng/mL latent TGF-β1, TMLC + FLS coculture, 16 h, n = 6 donors in triplicate, paired Wilcoxon. As to the method:
Transformed mink lung epithelial cells (TMLCs), a generous gift from Prof. DB Rifkin (Department of Cell Biology, NYU School of Medicine, New York, NY), were used to test TGF-β1 functionality. TMLCs were cultured in DMEM supplemented with 10% FBS, 1% Pen/Strep, and 1 mg/mL G418 Sulfate (Biowest; Riverside, MO, USA). For coculture, TMLCs were plated in 96-well plates at a density of 10^4 cells per well, and fibroblasts were added at a density of 1.5 × 10^4 cells per well, with a final volume of 100 μL. Cells were allowed to attach at 37 °C and 5% CO2. After 6 h, the medium was removed and replaced by the different treatments diluted in medium with 0.1% BSA without FBS (final volume of 100 μL).
For function-blocking experiments, cells were incubated with anti-αVβ6 antibody (clone 10D5; Merck) or with the isotype control IgG2a kappa (clone eBM2a; Thermo Fisher Scientific) for 20 min at room temperature at a concentration of 50 μg/mL in medium containing 1 mM MgCl2/0.1% BSA before adding other compounds. […] Luciferase activity was assessed by plate-reading luminometers with an injector (Victor™ X3; PerkinElmer Waltham, MA, USA) adding 100 µl of luciferase assay reagent (Promega) per well. […]
The data are expressed as relative luciferase activity (RLA). RLA is the measured luciferase activity of the coculture divided by the activity of the related control alone under the same conditions. […]

T1 sequence (P06756 31-992 limits assumed): as the sequence (P06756 31-992 limits assumed) above
T1 sequence (P18564 22-707 limits assumed): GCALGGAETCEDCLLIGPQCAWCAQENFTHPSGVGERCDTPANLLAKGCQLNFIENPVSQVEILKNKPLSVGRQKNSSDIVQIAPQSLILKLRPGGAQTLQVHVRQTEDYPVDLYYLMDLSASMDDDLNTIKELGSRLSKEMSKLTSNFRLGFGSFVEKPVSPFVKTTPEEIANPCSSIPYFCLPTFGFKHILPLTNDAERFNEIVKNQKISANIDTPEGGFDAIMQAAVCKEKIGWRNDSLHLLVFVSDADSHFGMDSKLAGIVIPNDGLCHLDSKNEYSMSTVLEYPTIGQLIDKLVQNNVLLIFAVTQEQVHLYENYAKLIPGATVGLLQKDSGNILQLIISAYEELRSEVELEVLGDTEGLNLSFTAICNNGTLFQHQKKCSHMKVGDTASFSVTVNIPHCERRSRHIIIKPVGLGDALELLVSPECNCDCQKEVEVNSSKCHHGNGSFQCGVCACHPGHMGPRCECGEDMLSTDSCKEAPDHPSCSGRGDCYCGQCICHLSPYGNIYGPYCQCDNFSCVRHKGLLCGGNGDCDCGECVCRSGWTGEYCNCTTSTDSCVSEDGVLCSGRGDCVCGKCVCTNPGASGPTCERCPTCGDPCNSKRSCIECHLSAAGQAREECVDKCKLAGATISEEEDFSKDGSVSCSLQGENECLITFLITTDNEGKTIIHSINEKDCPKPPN
T3 sequence (P06756 31-992 limits assumed): as the sequence (P06756 31-992 limits assumed) above
T3 sequence (P05556 21-728 limits assumed): as the sequence (P05556 21-728 limits assumed) above

By IC50 is commonly meant the midpoint of a concentration-inhibition curve. As usually defined, the Kd is the concentration at which binding is half-saturated. With “Echistatin (QCESGPCCRNCKFLKEGTICKRARGDDMDDYCNGKTCDCPRNPHKGPAT; disulfide (positions not given here); not fully specified (bridges); also: Lys ε-amino groups conjugated with 125I-iodobenzoate (125ISIB), positions not given here) [tracer radiolabeled with radioiodinated benzoate (125ISIB) at lysine side chains]”, the 50% inhibitory concentration (IC50) with integrin αVβ6 [1] was 14 nM; with integrin α5β1 [2] it was 2 nM; in the test with integrin αVβ1 [3] it was 1.5 nM; in the test with integrin αVβ3 [4], 3.7 nM; with integrin αVβ5 [5], 4 nM. Besides, the dissociation constant (Kd) came out at 1.48 nM with integrin α5β1 [6]; 0.99 nM with integrin αVβ1 [7]; 3.17 nM in the test with integrin αVβ3 [8]; 3.46 nM with integrin αVβ5 [9]; 17.1 nM with integrin αVβ6 [10].

On to SQRGHSRGRNQNSRRPS [VTN(381–397 a.a.)], for which, on integrin αVβ6 [1], the half-maximal inhibitory concentration (IC50) came out at 3200 nM.

On to VTN: whole VTN protein, for which the IC50 was 250 nM with integrin αVβ6 [1], 1500 nM with integrin αVβ3 [4] and 130 nM with integrin αVβ5 [5].

For hepcidin: used as a control peptide, the “effect on latent TGF-β1 activation (luciferase signal)” value in test [11] is “No significant variation was observed”.
